{
  "source": "patent US20190225676A1",
  "about": "(Hoffmann-La Roche, published 2019)",
  "binders": {"B1": {"name": "FAB-COLL-II: anti-digoxigenin antibody Fab conjugated to anti-collagen II antibody scFv II (bispecific antibody)", "heavy": "QVQLVESGGGLVKPGGSLRLSCAASGFTFSDYAMSWIRQAPGKGLEWVSSINIGATYIYYADSVKGRFTISRDNAKNSLYLQMNSLRAEDTAVYYCARPGSPYEYDKAYYSMAYWGQGTTVTVSSASTKGPSVFPLAPSSKSTSGGTAALGCLVKDYFPEPVTVSWNSGALTSGVHTFPAVLQSSGLYSLSSVVTVPSSSLGTQTYICNVNHKPSNTKVDKKVEPKSCGGGGSGGGGSEIVLTQSPATLSLSPGERATLSCRASQSVDDWLAWYQQKPGQAPRLLIYDASNRATGIPARFSGSGSGTDFTLTISSLEPEDFAVYYCQQGDTAPITFGQGTKVEIKGGGGSGGGGSGGGGSGGGGSQVQLVQSGAEVKKPGSSVKVSCKASGGTFSSYAISWVRQAPGQGLEWMGGIIPIFGTANYAQKFQGRVTITADESTSTAYMELSSLRSEDTAVYYCARNIVGDYLLDYWGQGTLVTVSS", "light": "not shown", "notes": "Fab-scFv fusion; also called FAB-COLL-II (8 nM)"}, "B2": {"name": "FAB-COLL-III: anti-digoxigenin antibody Fab conjugated to anti-collagen II antibody scFv III (bispecific antibody)", "heavy": "QVQLVESGGGLVKPGGSLRLSCAASGFTFSDYAMSWIRQAPGKGLEWVSSINIGATYIYYADSVKGRFTISRDNAKNSLYLQMNSLRAEDTAVYYCARPGSPYEYDKAYYSMAYWGQGTTVTVSSASTKGPSVFPLAPSSKSTSGGTAALGCLVKDYFPEPVTVSWNSGALTSGVHTFPAVLQSSGLYSLSSVVTVPSSSLGTQTYICNVNHKPSNTKVDKKVEPKSCGGGGSGGGGSEIVLTQSPATLSLSPGERATLSCRASQSVADWLAWYQQKPGQAPRLLIYDASNRATGIPARFSGSGSGTDFTLTISSLEPEDFAVYYCQQYDGWPITFGQGTKVEIKGGGGSGGGGSGGGGSGGGGSQVQLVQSGAEVKKPGSSVKVSCKASGGTFSSYAISWVRQAPGQGLEWMGGIIPIFGTANYAQKFQGRVTITADESTSTAYMELSSLRSEDTAVYYCARHLYYMLDYWGQGTLVTVSS", "light": "not shown", "notes": "Fab-scFv fusion; also called FAB-COLL-III (8 nM)"}, "B3": {"name": "FAB-COLL-I: anti-digoxigenin antibody Fab conjugated to anti-collagen II antibody scFv I (bispecific antibody)", "heavy": "QVQLVESGGGLVKPGGSLRLSCAASGFTFSDYAMSWIRQAPGKGLEWVSSINIGATYIYYADSVKGRFTISRDNAKNSLYLQMNSLRAEDTAVYYCARPGSPYEYDKAYYSMAYWGQGTTVTVSSASTKGPSVFPLAPSSKSTSGGTAALGCLVKDYFPEPVTVSWNSGALTSGVHTFPAVLQSSGLYSLSSVVTVPSSSLGTQTYICNVNHKPSNTKVDKKVEPKSCGGGGSGGGGSEIVLTQSPATLSLSPGERATLSCRASQSVRDFLAWYQQKPGQAPRLLIYGASNRATGIPARFSGSGSGTDFTLTISSLEPEDFAVYYCQQRGSAPLTFGQGTKVEIKGGGGSGGGGSGGGGSGGGGSQVQLVQSGAEVKKPGSSVKVSCKASGGTFSSYAISWVRQAPGQGLEWMGGIIPIFGTANYAQKFQGRVTITADESTSTAYMELSSLRSEDTAVYYCARDPNGNIVLSEYFDYWGQGTLVTVSS", "light": "not shown", "notes": "Fab-scFv fusion; also called FAB-COLL-I (2 nM)"}},
  "key": {"[1]": {"biological_target": "collagen (ECM compound added to PBS in the FCS diffusion test solution)", "assay": "cell-based or functional assay"}, "[2]": {"biological_target": "T1, human Collagen type II (Millipore CC052) (human, UniProt P02458 182-1241, limits assumed)", "T1 construct": "Bought material, immobilised by amine coupling on the sensor chip; also called human collagen II", "T1 sequence (P02458 182-1241 limits assumed)": "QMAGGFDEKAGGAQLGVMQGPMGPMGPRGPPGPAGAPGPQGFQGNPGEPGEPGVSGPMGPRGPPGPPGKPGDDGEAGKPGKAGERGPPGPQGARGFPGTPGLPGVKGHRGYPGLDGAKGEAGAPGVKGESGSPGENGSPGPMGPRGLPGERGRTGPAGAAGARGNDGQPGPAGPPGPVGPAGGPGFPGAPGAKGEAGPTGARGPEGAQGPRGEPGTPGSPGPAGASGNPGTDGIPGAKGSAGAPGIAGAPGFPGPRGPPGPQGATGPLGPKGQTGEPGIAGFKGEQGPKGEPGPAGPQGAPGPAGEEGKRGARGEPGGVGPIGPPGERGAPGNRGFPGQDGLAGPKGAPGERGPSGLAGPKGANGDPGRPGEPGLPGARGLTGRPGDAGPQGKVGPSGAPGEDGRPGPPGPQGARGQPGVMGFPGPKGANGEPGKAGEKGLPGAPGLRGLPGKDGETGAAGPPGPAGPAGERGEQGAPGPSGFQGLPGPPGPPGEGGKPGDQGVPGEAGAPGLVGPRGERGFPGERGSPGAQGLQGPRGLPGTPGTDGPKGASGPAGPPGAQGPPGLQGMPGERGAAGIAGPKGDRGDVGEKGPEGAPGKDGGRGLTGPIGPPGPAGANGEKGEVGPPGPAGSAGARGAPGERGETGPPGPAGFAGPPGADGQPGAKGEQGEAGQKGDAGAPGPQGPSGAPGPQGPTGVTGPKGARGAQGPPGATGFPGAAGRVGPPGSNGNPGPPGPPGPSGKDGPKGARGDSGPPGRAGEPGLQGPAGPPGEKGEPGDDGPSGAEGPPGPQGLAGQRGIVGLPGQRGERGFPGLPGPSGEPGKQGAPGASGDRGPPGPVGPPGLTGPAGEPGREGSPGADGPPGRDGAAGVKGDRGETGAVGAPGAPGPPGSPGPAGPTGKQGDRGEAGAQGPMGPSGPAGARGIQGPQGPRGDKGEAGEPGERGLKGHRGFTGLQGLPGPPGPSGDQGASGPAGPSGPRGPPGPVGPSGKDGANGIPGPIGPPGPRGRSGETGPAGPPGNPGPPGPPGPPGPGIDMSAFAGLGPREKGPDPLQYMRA", "assay": "SPR (BIAcore T200), collagen II amine-coupled on chip, construct injected 1.23-900 nM, 25 C, 1:1 Langmuir fit", "method": "(§1) Binding kinetics of anti-collagen antibodies to human Collage type II (Millipore CC052) and porcine Collagen type II (USBiological C7510-31) was investigated by surface plasmon resonance using a BIAcore T200 instrument (GE Healthcare). All experiments were performed at 25° C. using HBS-P (10 mM […], 140 mM NaCl, 0.05% Tween 20 pH 7.4) as running and dilution buffer. Collagen type II was immobilized on a Series S CMS Sensor Chip (GE Healthcare) using standard amine coupling chemistry. Anti-Collagen antibodies were injected for 180 s with concentrations from 1.23 up to 900 nM (1:3 dilution series) onto the surface (association phase). The dissociation phase was monitored for 600 sec by washing with running buffer. The surface was regenerated by injecting 0.85% H₃PO₄ for 60 sec. Bulk refractive index differences were corrected by subtracting the response obtained from a mock surface. Blank injections were subtracted (double referencing). The derived curves were fitted to a 1:1 Langmuir binding model using the BIAevaluation software."}, "[3]": {"biological_target": "T2, porcine Collagen type II (USBiological C7510-31) (porcine)", "T2 construct": "Bought material, immobilised by amine coupling on the sensor chip; also called porcine collagen II", "assay": "SPR (BIAcore T200), collagen II amine-coupled on chip, construct injected 1.23-900 nM, 25 C, 1:1 Langmuir fit", "method": "as §1"}},
  "data": [
    {"binder": "B1", "values": [
      {"measurement": "diffusion rate FCS (increase in PBS comprising ECM compound at equimolar concentration compared to PBS alone)", "setting": "[1]", "value": 260, "unit": "%"},
      {"measurement": "Kd", "setting": "[2]", "value": 15, "unit": "nM"},
      {"measurement": "Kd", "setting": "[3]", "value": 50, "unit": "nM"}
    ]},
    {"binder": "B2", "values": [
      {"measurement": "diffusion rate FCS (increase in PBS comprising ECM compound at equimolar concentration compared to PBS alone)", "setting": "[1]", "value": 40, "unit": "%"},
      {"measurement": "Kd", "setting": "[2]", "value": 180, "unit": "nM"},
      {"measurement": "Kd", "setting": "[3]", "value": 342, "unit": "nM"}
    ]},
    {"binder": "B3", "values": [
      {"measurement": "diffusion rate FCS (increase in PBS comprising ECM compound at equimolar concentration compared to PBS alone)", "setting": "[1]", "value": 180, "unit": "%"},
      {"measurement": "Kd", "setting": "[2]", "value": 30, "unit": "nM"},
      {"measurement": "Kd", "setting": "[3]", "value": 56, "unit": "nM"}
    ]}
  ]
}
